According to patent publication US12109252B2, “Systems, methods and products for minimizing tissue reactions and tissue injury at an infusion site” (Cell and Molecular Tissue Engineering, LLC, priority 2016, dated 2024):
“Also recorded” adds a separate entry of the source.

Columns and labels:
[1] = test system: leukocyte proteases including neutrophil elastase, trypsin, and insulin-degrading enzyme; experiment: Insulin degradation by leukocyte proteases (SDS-PAGE) +/- inhibitors; type: biochemical; conditions: in vitro
Method: To characterize the ability of purified proteases or leukocyte extracts to degrade FITC-insulin in vitro we analyzed the impact of cell culture supernatants and cell lysates on insulin degradation using 10-20% SDS-PAGE gels. This was performed +/−anti-protease cocktails to characterize proteases responsible for insulin degradation. The functional activity of individual leukocyte proteases was analyzed using protease PAGE gels +/−protease inhibitors. This study clarifies the role of leukocytes in insulin therapy. (FIG. 13a, 13b, 13c and FIG. 14).

[2] = molecular target: T1, Elastase (Homo sapiens, UniProt P08246); experiment: Insulin degradation by elastase +/- anti-proteases (PAGE); type: biochemical
T1 sequence (P08246 30-267): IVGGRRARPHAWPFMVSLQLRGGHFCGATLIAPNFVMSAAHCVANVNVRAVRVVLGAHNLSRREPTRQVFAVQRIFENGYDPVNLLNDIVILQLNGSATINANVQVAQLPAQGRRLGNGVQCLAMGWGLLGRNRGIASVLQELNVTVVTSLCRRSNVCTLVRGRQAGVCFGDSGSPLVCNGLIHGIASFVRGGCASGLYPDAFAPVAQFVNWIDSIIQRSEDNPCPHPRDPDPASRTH
Method: (§1) To characterize the ability of purified proteases or leukocyte extracts to degrade FITC-insulin in vitro we analyzed the impact of cell culture supernatants and cell lysates on insulin degradation using 10-20% SDS-PAGE gels. This was performed +/−anti-protease cocktails to characterize proteases responsible for insulin degradation. The functional activity of individual leukocyte proteases was analyzed using protease PAGE gels +/−protease inhibitors. […] (FIG. 13a, 13b, 13c and FIG. 14).
(§2) In FIG. 53, I=insulin, T=Trypsin, E=Elastase, IDE-Insulin Degrading Enzyme, PMN=Triton X100 extract of human PMN, mwn=molecular weight marker.
(§3) In this example, we tested the ability of various anti-proteases to inhibit insulin degradation by leukocyte extracts and proteases.

[3] = test system: Trypsin; experiment: Insulin degradation by trypsin +/- anti-proteases (PAGE); type: biochemical
Method: as §1, §2, §3

[4] = test system: Triton X100 extract of human PMN; experiment: Insulin degradation by PMN extracts +/- inhibitors (PAGE); type: biochemical
Text: as §2, §3

[5] = test system: human peripheral blood mononuclear cells (PMBC); experiment: Alamar Blue cell viability of human PBMC; type: cell-based
Method: For these in vitro studies, generally either human or mouse leukocyte cells or cell lines were cultured in vitro in the presence or absence of insulin preservatives or fibrils at various concentrations. at selected times cell viability and or cell activation has (cytokine expression) was determined. The results of these studies are presented below the general work flow for these studies are located in FIG. 61. […] Insulin diluent contains the formulation components of commercial insulin solutions but without the insulin protein itself. For these studies we utilized the work flow described in FIG. 61. […] At physiologic concentrations, both insulin formulation and insulin fibrils are toxic for human cells in vitro. […] The Protocol was: Hu-PBMC+insulin (72 hr)=>Assay Interleukin 8 (IL-8). […] The Protocol was Hu-PBMC+insulin (7 days)=>Assay Interferon gamma. […] The in vivo activation of these cells would cause inflammation and tissue destruction resulting in loss of effective CSII function.

[6] = test system: human peripheral blood mononuclear cells (PBMC); experiment: In vitro morphology of human PBMC after exposure; type: cell-based
Method: FIG. 6. Toxicity of insulin and fibrils in vitro: Preliminary in vitro morphology of human peripheral blood mononuclear cells (PBMC) after exposure to control media, high (1.0 mg/mL), and low (0.1 mg/mL) concentrations of insulin or insulin fibrils (i.e. insulin degradation byproducts) FIG. 6). Healthy control cells [Left column] show a rounded morphology.

[7] = test system: human PBMCs; experiment: Pro-inflammatory cytokine expression by human PBMC in vitro; type: cell-based
Method: For these in vitro studies, generally either human or mouse leukocyte cells or cell lines were cultured in vitro in the presence or absence of insulin preservatives or fibrils at various concentrations. at selected times cell viability and or cell activation has (cytokine expression) was determined. The results of these studies are presented below the general work flow for these studies are located in FIG. 61.
FIG. 7. Our in vitro studies Insulin and excipients induced expression of pro-inflammatory cytokines in PBMC in vitro. […] Similar data has been obtained with human cell lines (THP-1) and mouse macrophages (MQ). This supports our belief that I/E can induce inflammation in vivo, and that chronic infusion of IFP can cause chronic inflammation and fibrosis.
For these studies we utilized the work flow described in FIG. 61. […] At physiologic concentrations, both insulin formulation and insulin fibrils are toxic for human cells in vitro. […] The Protocol was: Hu-PBMC+insulin (72 hr)=>Assay Interleukin 8 (IL-8). […] The Protocol was Hu-PBMC+insulin (7 days)=>Assay Interferon gamma. […] The in vivo activation of these cells would cause inflammation and tissue destruction resulting in loss of effective CSII function.

[8] = test system: human neutrophils; experiment: Survival of human PMNs in serial dilutions; type: cell-based; conditions: 3 days, 1:48 dilution
Text: As the concentration increased, the number of cells surviving decreased for both insulin and insulin diluent.

[9] = molecular target: Insulin degrading enzyme (IDE) (Homo sapiens, UniProt P14735); experiment: Insulin degradation by insulin degrading enzyme +/- anti-proteases (PAGE); type: biochemical
Method: as §1, §2, §3

[10] = test system: mouse mast cells; experiment: Mast cell morphology/toxicity in vitro; type: cell-based; conditions: physiologic concentrations
Text: FIGS. 46-47 show the impact of insulin on mast cell morphology. At physiologic concentrations, both insulin formulations fibrils (not shown) are toxic to mouse mast cells in vitro.

[11] = test system: human mast cells; experiment: Mast cell viability (alamar Assay); type: cell-based
Text: (§4) FIGS. 48-49 show the impact of insulin on mast cell viability and degranulation. Mast cells (MC) are key skin “sentinel” cells and are generally the first tissue cell population activated by tissue trauma triggering acute inflammatory or allergic reactions and serve a central role in chronic inflammation and wound healing. Recent results from our laboratory indicate that skin mast cells affect glucose sensor induced tissue reactions and CGM function (13).

[12] = test system: HMC-1 human mast cells; experiment: Mast cell degranulation/activation; type: cell-based; conditions: in vitro
Text: as §4

[13] = test system: infusion site tissue; experiment: Tissue toxicity of infusion (open loop CSII mouse model); conditions: open loop delivery system
Text: Combined CSII and CGM mouse model (A B, C). Non-obese diabetic (NOD) mouse implanted with Abbott Navigator glucose sensor (GS) and a short polymer infusion set for CSII. The set and sensor were placed sufficiently far apart to avoid interference. Open Loop CGM and CSII insulin infusion system cage and assembly, that allows animal ambulation and mobility during simultaneous continuous glucose sensing and insulin infusion.
Tissue Toxicity of Insulin in vivo: Infusion: The sectioned polymer catheter wall is visible and marked with a black asterisk (*) in all tissues. […] Infusion was accomplished using the open loop delivery system described in FIG. 5.

[14] = test system: air pouch; experiment: Leukocyte influx into murine air pouch model (lavage cell count); conditions: injection or infusion into air pouch
Method: For this model, sterile air was injected subcutaneously into mouse skin creating a sustained compartment (pouch) for injection of test agents (FIG. 2). At various times post-air/post-agent injection, the “air pouch” can be lavaged, and the cell and fluid content removed and characterized using standard technology (FIG. 2). After lavage, tissue reactions in the air pouch walls can also be determined using standard histopathology/immunohistochemistry (FIG. 2).
We adapted this model for the evaluation of tissue responses to infusion of insulin, excipients, factors, drugs and control solutions (e.g. saline). […] Initially, CD-1 mice received air injections (3 mL) into the dorsal site of the low back to induce the air pouch in each animal. On the following day individual mice received infusions of either saline or insulin diluent. […] Exudate was then centrifuged and a TC10 automated cell counter determined the total viable leukocyte cells. The potential inflammatory effect of insulin diluent was evaluated through the analysis on the mouse leukocyte count and exudate concentrations in the inflamed air pouch cavity.
Air was injected subcutaneously into the mouse skin creating a sustained compartment (pouch) for injection of diluent or saline (control). […] The resulting fluid was characterized for cell number (auto-hemo-cytometer), and cell type using fluorescence activated Cell sorting (FACS).

Substance: aprotinin
- reduction of activity of insulin-degrading leukocyte proteases [1]: reduced
- blocking of insulin degradation by elastase [2]: blocked
- blocking of insulin degradation by trypsin [3]: blocked
- inhibition of insulin degradation by PMN extracts [4]: blocked

Substance: FITC-insulin: fluorescent insulin (FITC-insulin; Sigma, St. Louis, MO)
- degradation of insulin by elastase [2]: degraded

Substance: insulin: commercial insulin formulation: complete insulin (insulin plus preservatives)
- cell viability (Alamar Blue assay) ([5]; 3 days of exposure to increasing concentrations): decreasing cell viability
- toxicity for human cells in vitro ([5]; physiologic concentrations): toxic
- PBMC morphology ([6]; high (1.0 mg/mL) concentration): tight contracted morphology indicative of cell death/dying
- PBMC morphology ([6]; low (0.1 mg/mL) concentration): spread, expanded morphology indicative of cell injury/activation
- pro-inflammatory activation of Hu-PBMC ([7]; IL-8 72 hr, Interferon gamma 7 days): cause pro-inflammatory activation
- expression of pro-inflammatory cytokines including IL-6, IL-8 and TNFa ([7]; PBMC in vitro): induce expression of pro-inflammatory cytokines
- number of PMN's surviving vs buffer alone [8]: significantly fewer cells surviving
- degradation of insulin by elastase [2]: cleaves insulin at many sites
- degradation of insulin by insulin degrading enzyme [9]: cleaves insulin into several smaller peptides
- toxicity to mouse mast cells [10]: toxic
- mast cell death (alamar Assay) ([11]; increasing concentration): increasing cell death
- toxicity to human mast cells ([11]; physiologic concentrations): toxic
- mast cell degranulation / activation [12]: activate MCs
- mast cell degranulation / activation ([12]; listed as insulin formulations): cause mast cell degrandulation
- tissue reaction at infusion site surrounding catheter [13]: extensive cell damage, inflammation and cellular infiltrate
- inflammation / tissue reactions in air pouch vs saline [14]: cause tissue reactions

Substance: AAT: alpha-1-antitrypsin, natural protease inhibitor
- reduction of activity of insulin-degrading leukocyte proteases [1]: reduced
- blocking of insulin degradation by trypsin [3]: blocked
- inhibition of insulin degradation by PMN extracts [4]: completely inhibits; also recorded: blocked
